According to IntAct's records for PubMed 35512704:

B1: Mothers against decapentaplegic homolog 4 (Homo sapiens), Q13485 (parent)
chain: MDNMSITNTPTSNDACLSIVHSLMCHRQGGESETFAKRAIESLVKKLKEKKDELDSLITAITTNGAHPSKCVTIQRTLDGRLQVAGRKGFPHVIYARLWRWPDLHKNELKHVKYCQYAFDLKCDSVCVNPYHYERVVSPGIDLSGLTLQSNAPSSMMVKDEYVHDFEGQPSLSTEGHSIQTIQHPPSNRASTETYSTPALLAPSESNATSTANFPNIPVASTSQPASILGGSHSEGLLQIASGPQPGQQQNGFTGQPATYHHNSTTTWTGSRTAPYTPNLPHHQNGHLQHHPPMPPHPGHYWPVHNELAFQPPISNHPAPEYWCSIAYFEMDVQVGETFKVPSSCPIVTVDGYVDPSGGDRFCLGQLSNVHRTEAIERARLHIGKGVQLECKGEGDVWVRCLSDHAVFVQSYYLDREAGRAPGDAVHKIYPSAYIKVFDLRQCHRQMQQQAATAQAAAAAQAAAVAGNIPGPGSVGGIAPAISLSAAAGIGVDDLRRLCILRMSFVKGWGPDYPRQSIKETPCWIEIHLHRALQLLDEVLHTMPIADPQPLD
partner: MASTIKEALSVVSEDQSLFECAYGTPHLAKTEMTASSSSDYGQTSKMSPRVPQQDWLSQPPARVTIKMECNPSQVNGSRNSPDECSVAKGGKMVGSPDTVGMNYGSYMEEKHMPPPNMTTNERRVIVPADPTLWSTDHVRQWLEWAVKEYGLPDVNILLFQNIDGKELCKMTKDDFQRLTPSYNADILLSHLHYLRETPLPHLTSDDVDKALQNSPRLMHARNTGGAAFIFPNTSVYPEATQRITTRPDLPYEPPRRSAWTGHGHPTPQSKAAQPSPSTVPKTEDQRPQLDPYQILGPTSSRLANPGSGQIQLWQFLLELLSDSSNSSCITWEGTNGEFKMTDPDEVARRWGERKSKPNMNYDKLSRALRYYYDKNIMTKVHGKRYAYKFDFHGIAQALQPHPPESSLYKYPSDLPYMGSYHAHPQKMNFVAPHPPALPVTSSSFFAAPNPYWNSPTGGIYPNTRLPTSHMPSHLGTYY
B2: Mothers against decapentaplegic homolog 4 (Homo sapiens), Q13485 (parent)
chain: B1 chain
partner: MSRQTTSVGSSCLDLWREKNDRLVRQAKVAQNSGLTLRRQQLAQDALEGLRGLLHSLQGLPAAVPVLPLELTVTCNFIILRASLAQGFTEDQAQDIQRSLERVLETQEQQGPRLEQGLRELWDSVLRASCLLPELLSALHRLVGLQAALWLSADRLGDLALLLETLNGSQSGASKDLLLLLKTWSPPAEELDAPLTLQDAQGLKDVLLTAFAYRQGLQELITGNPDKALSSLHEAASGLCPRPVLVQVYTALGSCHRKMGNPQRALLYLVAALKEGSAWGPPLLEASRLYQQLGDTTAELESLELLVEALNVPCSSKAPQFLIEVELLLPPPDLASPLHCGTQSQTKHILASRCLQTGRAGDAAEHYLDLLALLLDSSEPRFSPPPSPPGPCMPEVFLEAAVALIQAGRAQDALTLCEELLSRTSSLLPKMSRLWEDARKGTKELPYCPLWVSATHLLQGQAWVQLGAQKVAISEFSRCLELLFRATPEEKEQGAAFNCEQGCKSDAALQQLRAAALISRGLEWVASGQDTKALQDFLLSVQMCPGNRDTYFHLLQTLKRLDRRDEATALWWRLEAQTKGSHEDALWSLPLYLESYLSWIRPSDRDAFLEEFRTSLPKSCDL
B3: Mothers against decapentaplegic homolog 4 (Homo sapiens), Q13485 (parent)
chain: B1 chain
partner: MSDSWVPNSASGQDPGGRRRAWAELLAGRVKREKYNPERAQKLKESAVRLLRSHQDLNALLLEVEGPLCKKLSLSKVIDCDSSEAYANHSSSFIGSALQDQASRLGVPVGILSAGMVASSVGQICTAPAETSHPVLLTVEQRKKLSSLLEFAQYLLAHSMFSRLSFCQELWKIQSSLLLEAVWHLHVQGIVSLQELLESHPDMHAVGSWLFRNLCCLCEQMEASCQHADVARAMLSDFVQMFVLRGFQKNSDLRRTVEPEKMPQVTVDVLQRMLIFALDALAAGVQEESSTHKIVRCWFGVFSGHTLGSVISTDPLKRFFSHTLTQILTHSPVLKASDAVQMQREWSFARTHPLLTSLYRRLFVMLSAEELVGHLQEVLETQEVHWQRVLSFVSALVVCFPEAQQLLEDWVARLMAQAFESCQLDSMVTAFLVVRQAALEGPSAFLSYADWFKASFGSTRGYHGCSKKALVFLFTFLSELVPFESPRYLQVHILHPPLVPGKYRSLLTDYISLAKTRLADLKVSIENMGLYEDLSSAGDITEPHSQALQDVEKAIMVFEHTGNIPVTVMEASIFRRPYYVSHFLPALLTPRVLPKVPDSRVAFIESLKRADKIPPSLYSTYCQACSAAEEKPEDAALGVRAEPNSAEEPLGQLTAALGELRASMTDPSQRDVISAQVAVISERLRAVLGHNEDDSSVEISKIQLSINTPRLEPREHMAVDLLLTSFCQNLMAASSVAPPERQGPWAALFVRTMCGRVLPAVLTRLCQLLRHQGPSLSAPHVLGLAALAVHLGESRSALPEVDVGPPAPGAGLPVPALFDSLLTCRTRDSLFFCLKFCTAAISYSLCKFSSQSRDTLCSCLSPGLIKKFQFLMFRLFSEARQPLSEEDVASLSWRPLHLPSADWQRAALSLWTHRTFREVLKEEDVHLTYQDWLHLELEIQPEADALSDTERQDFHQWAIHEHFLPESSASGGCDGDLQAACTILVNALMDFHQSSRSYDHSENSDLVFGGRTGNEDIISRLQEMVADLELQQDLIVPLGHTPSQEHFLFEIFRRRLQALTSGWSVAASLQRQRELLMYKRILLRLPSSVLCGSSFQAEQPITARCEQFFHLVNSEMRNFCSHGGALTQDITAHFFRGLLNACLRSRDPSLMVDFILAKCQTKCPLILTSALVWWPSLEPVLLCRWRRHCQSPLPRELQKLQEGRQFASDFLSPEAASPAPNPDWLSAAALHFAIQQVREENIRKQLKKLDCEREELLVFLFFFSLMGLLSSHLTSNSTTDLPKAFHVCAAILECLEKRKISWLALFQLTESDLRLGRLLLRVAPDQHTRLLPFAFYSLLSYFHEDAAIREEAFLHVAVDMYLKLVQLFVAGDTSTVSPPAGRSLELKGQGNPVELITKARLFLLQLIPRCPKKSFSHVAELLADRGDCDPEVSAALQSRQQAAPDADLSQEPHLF
B4: Mothers against decapentaplegic homolog 4 (Homo sapiens), Q13485 (parent)
chain: B1 chain
partner: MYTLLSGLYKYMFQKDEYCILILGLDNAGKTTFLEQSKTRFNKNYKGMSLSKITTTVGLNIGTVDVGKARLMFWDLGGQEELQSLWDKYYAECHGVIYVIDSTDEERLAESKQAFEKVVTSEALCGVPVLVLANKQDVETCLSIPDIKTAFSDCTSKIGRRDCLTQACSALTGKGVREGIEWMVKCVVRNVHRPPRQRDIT
B5: Mothers against decapentaplegic homolog 4 (Homo sapiens), Q13485 (parent)
chain: B1 chain
partner: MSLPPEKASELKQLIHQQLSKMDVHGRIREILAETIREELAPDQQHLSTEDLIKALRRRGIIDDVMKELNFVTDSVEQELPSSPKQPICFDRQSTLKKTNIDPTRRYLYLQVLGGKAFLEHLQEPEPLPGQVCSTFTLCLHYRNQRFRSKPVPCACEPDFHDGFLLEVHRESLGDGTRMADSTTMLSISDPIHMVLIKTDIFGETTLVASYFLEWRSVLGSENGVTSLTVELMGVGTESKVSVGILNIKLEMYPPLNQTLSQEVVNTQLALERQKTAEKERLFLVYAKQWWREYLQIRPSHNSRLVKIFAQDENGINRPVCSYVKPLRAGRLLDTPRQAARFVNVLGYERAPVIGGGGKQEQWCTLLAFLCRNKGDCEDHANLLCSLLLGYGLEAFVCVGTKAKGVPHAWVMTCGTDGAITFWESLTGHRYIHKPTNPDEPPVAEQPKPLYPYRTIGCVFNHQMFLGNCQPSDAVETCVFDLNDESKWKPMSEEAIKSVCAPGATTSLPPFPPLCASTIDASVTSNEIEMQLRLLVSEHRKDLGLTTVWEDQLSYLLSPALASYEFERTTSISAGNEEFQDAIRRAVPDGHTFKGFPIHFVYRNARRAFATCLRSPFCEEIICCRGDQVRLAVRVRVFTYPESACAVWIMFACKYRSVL
B6: Mothers against decapentaplegic homolog 4 (Homo sapiens), Q13485 (parent)
chain: B1 chain
partner: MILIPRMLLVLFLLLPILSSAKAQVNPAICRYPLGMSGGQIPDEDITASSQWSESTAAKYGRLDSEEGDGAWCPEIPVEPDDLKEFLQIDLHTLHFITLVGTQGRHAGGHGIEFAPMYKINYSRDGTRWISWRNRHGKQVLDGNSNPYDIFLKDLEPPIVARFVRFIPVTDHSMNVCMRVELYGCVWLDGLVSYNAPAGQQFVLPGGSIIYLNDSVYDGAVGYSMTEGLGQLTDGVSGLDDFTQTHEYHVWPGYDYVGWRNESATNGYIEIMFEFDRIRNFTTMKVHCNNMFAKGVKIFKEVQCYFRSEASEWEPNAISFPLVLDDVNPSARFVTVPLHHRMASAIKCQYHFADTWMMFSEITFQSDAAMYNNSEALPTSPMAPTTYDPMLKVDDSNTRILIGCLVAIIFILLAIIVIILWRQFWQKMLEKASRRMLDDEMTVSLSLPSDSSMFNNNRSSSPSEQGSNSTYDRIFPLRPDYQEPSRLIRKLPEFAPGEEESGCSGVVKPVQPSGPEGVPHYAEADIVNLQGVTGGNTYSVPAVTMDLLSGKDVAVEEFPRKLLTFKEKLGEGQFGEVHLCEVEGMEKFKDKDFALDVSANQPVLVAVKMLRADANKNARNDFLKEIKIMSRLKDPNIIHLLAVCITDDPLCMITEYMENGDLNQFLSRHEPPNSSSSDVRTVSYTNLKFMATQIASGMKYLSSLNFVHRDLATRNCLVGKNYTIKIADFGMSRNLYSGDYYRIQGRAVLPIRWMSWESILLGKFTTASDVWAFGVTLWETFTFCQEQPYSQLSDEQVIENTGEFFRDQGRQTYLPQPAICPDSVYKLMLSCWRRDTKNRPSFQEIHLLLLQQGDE

Variants of: B1
Details: with erg_human ERG

effect of a mutation on the interaction	Variant
with no effect	R361H

Variants of: B1
Details: with erg_human ERG
Remark: another data set of the same source

effect of a mutation on the interaction	Variant
with no effect	R361C

Variants of: B1
Details: with erg_human ERG
Remark: another data set of the same source

effect of a mutation on the interaction	Variant
with no effect	D351H

Variants of: B1
Details: with erg_human ERG
Remark: another data set of the same source

effect of a mutation on the interaction	Variant
with no effect	G386D

Variants of: B2
Details: with fancg_human FANCG

effect of a mutation on the interaction	Variant
with no effect	R361H

Variants of: B2
Details: with fancg_human FANCG
Remark: another data set of the same source

effect of a mutation on the interaction	Variant
with no effect	R361C

Variants of: B2
Details: with fancg_human FANCG
Remark: another data set of the same source

effect of a mutation on the interaction	Variant
with no effect	D351H

Variants of: B2
Details: with fancg_human FANCG
Remark: another data set of the same source

effect of a mutation on the interaction	Variant
with no effect	G386D

Variants of: B3
Details: with fanca_human FANCA

effect of a mutation on the interaction	Variant
with no effect	D351H

Variants of: B3
Details: with fanca_human FANCA
Remark: another data set of the same source

effect of a mutation on the interaction	Variant
with no effect	G386D

Variants of: B3
Details: with fanca_human FANCA
Remark: another data set of the same source

effect of a mutation on the interaction	Variant
with no effect	R361C

Variants of: B3
Details: with fanca_human FANCA
Remark: another data set of the same source

effect of a mutation on the interaction	Variant
with no effect	R361H

Variants of: B4
Details: with arfrp_human ARFRP1, Q13795

effect of a mutation on the interaction	Variant
with no effect	G386D

Variants of: B4
Details: with arfrp_human ARFRP1, Q13795
Remark: another data set of the same source

effect of a mutation on the interaction	Variant
with no effect	R361C

Variants of: B4
Details: with arfrp_human ARFRP1, Q13795
Remark: another data set of the same source

effect of a mutation on the interaction	Variant
with no effect	R361H

Variants of: B4
Details: with arfrp_human ARFRP1, Q13795
Remark: another data set of the same source

effect of a mutation on the interaction	Variant
with no effect	D351H

Variants of: B5
Details: with cep76_human CEP76, Q8TAP6

effect of a mutation on the interaction	Variant
with no effect	R361C

Variants of: B5
Details: with cep76_human CEP76, Q8TAP6
Remark: another data set of the same source

effect of a mutation on the interaction	Variant
with no effect	R361H

Variants of: B5
Details: with cep76_human CEP76, Q8TAP6
Remark: another data set of the same source

effect of a mutation on the interaction	Variant
with no effect	D351H

Variants of: B6
Details: with ddr2_human DDR2, Q16832

effect of a mutation on the interaction	Variant
with no effect	R361C

Variants of: B6
Details: with ddr2_human DDR2, Q16832
Remark: another data set of the same source

effect of a mutation on the interaction	Variant
with no effect	R361H

Variants of: B6
Details: with ddr2_human DDR2, Q16832
Remark: another data set of the same source

effect of a mutation on the interaction	Variant
with no effect	G386D

Variants of: B6
Details: with ddr2_human DDR2, Q16832
Remark: another data set of the same source

effect of a mutation on the interaction	Variant
with no effect	D351H
